The values that follow come from the Human Domainome abundance scans (Beltran et al. 2025).

± gives the uncertainty stated by the source.

The chains are these.
B1: POU domain, class 3, transcription factor 2, residues 262 to 338; numbered along this chain, P20265 (parent)
chain: EDTPTSDDLEQFAKQFKQRRIKLGFTQADVGLALGTLYGNVFSQTTICRFEALQLSFKNMCKLKPLLNKWLEEADSS

In this data set the parent is B1. The data set is described as follows: abundance fitness (aPCA) (normalised: wild type 0, dead -1); higher = more abundant; growth selection in yeast, the domain comes from the species named. Conditions: Homo sapiens.
For EDTPTSDDLEQFAKQFKQRRIKLGFTQADVGLALGTLYGNVFSQTTICRFEALQLSFKNMCHLKPLLNKWLEEADSS, the abundance fitness is -0.156 ± 0.06.

As for EDTPTSDDLEQFAKQFKQRRIKLGFTQADVGLALGTLYGNVFSQTTICRFEALQLSFKNMCKLKPLLNKWLEEQDSS, the abundance fitness was -0.046 ± 0.055.

For EDTPTSDDLEQFAKQFKQRRIKLGFTQADVGLALGTLYGNVFSQTTICRFEALQLSFKNMCKLKPLLNKWLEEGDSS, the abundance fitness was -0.331 ± 0.03.

Consider EDTPTSDDLEQFAKQFKQRRIKLGFTQADVGLALGTLYGNVFSQTTICRFEALQLSFKNMCKLKPLLNKWLEERDSS, for which the abundance fitness is -0.036 ± 0.029.

As to EDTPTSDDLEQFAKQFKQRRIKLGFTQADVGLALSTLYGNVFSQTTICRFEALQLSFKNMCKLKPLLNKWLEEADSS, the abundance fitness worked out at 0.037 ± 0.033.

With EDTPTSDDLEQFAKQFKQRRIKLGFTQADVGLALMTLYGNVFSQTTICRFEALQLSFKNMCKLKPLLNKWLEEADSS, the abundance fitness was -0.174 ± 0.042.

For the variant EDTPTSDDLEQFAKQFKQRRIKLGFTQADVGLALETLYGNVFSQTTICRFEALQLSFKNMCKLKPLLNKWLEEADSS, the abundance fitness is -0.076 ± 0.035.

EDTPTSDDLEQFAKQFKQRRIKLGFTQADVGLALGTLYGNVFSQTTICRFEALQLSFKNMCKIKPLLNKWLEEADSS: the abundance fitness is -0.148 ± 0.073.

Turning to EDTPTSDDLEQFAKQFKQRRIKLGFTQADVGLALGTLYGNVFSQTTICRFEALQLSFKNMCKLKPLLNKWLEEAPSS, the abundance fitness was -0.106 ± 0.049.

EDTPTSDDLEQFAKQIKQRRIKLGFTQADVGLALGTLYGNVFSQTTICRFEALQLSFKNMCKLKPLLNKWLEEADSS: the abundance fitness is -0.753 ± 0.13.

As for EDTPTSDDLEQFAKQFKQRRIKLGFTQADVGLALGTLYGNSFSQTTICRFEALQLSFKNMCKLKPLLNKWLEEADSS, the abundance fitness is -0.017 ± 0.045.

Take EDTPTSDDLEQFAKQFKQRRIKPGFTQADVGLALGTLYGNVFSQTTICRFEALQLSFKNMCKLKPLLNKWLEEADSS: the abundance fitness is -0.887 ± 0.13.

Consider EDTPTSDDLEQFAKQFKQRRIKLGFTQADVGLALGTLYGNVFSQTTICRFEALQLSFKNMCKLKPLLNVWLEEADSS, for which the abundance fitness is -0.273 ± 0.084.

With EDTPTSDDLEQFAKQFKQRRIKLGFTQADVGLALGTLYGNVFSQTTICRFEALQLSFKNMCKLKPLLNLWLEEADSS, the abundance fitness was -0.144 ± 0.092.

In the case of EDTPTSDDLEQFAKQFKQRRIKLGFTQADVGLALGTLYGNVFSQTTICRFEALQLSFKNMCKLKPLLNAWLEEADSS, the abundance fitness was -0.094 ± 0.07.

EDTPTSDDLEQFAKQFKQRRIKLGFTQANVGLALGTLYGNVFSQTTICRFEALQLSFKNMCKLKPLLNKWLEEADSS: the abundance fitness was -0.228 ± 0.063.

EDTPTSDDLEQFAKQFKQRRIKLGFTQADVGLALGTLYGNVFSQTTICRFEALQLSFKNMCKLKPLLNKWLETADSS: the abundance fitness was found to be 0.089 ± 0.073.

Take EDTPTSDDLEQFAKQFKQRRIKLGFTQADVGLALGTLYGNVFSQQTICRFEALQLSFKNMCKLKPLLNKWLEEADSS: the abundance fitness came out at 0.005 ± 0.039.

On to EDTPTSDDLEQFAKQFKQRRIKLGFTQADVGLALGTLYGNVFSQPTICRFEALQLSFKNMCKLKPLLNKWLEEADSS, for which the abundance fitness is -0.261 ± 0.045.

As to EDTPTSDDLEQFAKQFKQRRIKLGFTQADVGLALGTLYGNVFSQHTICRFEALQLSFKNMCKLKPLLNKWLEEADSS, the abundance fitness was -0.066 ± 0.062.

As for EDTPTPDDLEQFAKQFKQRRIKLGFTQADVGLALGTLYGNVFSQTTICRFEALQLSFKNMCKLKPLLNKWLEEADSS, the abundance fitness is 0.059 ± 0.041.

EDTPTSDDWEQFAKQFKQRRIKLGFTQADVGLALGTLYGNVFSQTTICRFEALQLSFKNMCKLKPLLNKWLEEADSS: the abundance fitness is -0.396 ± 0.037.

As for EDTPTSDDAEQFAKQFKQRRIKLGFTQADVGLALGTLYGNVFSQTTICRFEALQLSFKNMCKLKPLLNKWLEEADSS, the abundance fitness is -0.491 ± 0.041.

On to EDTPTSDDLEQFAKQFKQRRIKLGFTQADPGLALGTLYGNVFSQTTICRFEALQLSFKNMCKLKPLLNKWLEEADSS, for which the abundance fitness was -0.569 ± 0.091.

Consider EDTPTSDDLEQFAKQFKQRRIKLGFTQADFGLALGTLYGNVFSQTTICRFEALQLSFKNMCKLKPLLNKWLEEADSS, for which the abundance fitness is -0.552 ± 0.35.

EDTPTSDDLEQFAKQFKQRRIKLGFTQADVGLALGTLYGNVFSQTTICRFEALQLSFKRMCKLKPLLNKWLEEADSS: the abundance fitness turned out to be 0.059 ± 0.029.

Consider EDTPTSDDLEQFAKQFKQRRIKLGFTQADVGLALGTLYGNVFSQTTICRFEALQLSFKVMCKLKPLLNKWLEEADSS, for which the abundance fitness was found to be 0.041 ± 0.033.

Take EDTPTSDDLEQFAKQFKQRRIKLSFTQADVGLALGTLYGNVFSQTTICRFEALQLSFKNMCKLKPLLNKWLEEADSS: the abundance fitness was -0.646 ± 0.049.

Consider EDTPTSDDLEQFAKQFKQRRIKLGVTQADVGLALGTLYGNVFSQTTICRFEALQLSFKNMCKLKPLLNKWLEEADSS, for which the abundance fitness was -0.216 ± 0.033.

With EDTPTSDDLEQFAKQFKQRRIKLGCTQADVGLALGTLYGNVFSQTTICRFEALQLSFKNMCKLKPLLNKWLEEADSS, the abundance fitness was -0.192 ± 0.05.

Regarding EDTPTSDDLEQFAKQFKQRRIKLGITQADVGLALGTLYGNVFSQTTICRFEALQLSFKNMCKLKPLLNKWLEEADSS, the abundance fitness was -0.096 ± 0.064.

Take EDTPTSDDLEQFAKQFKQRRIKLGFTQADVGLALGTLYGNVFSQTTICRFEALQLSFKNMCKLKPLLNKILEEADSS: the abundance fitness was -0.64 ± 0.15.

On to EDTPTSDDLEQFAKQFKQRRIKLGFTQADVGLALGTLYGNVFSQTTICRFEACQLSFKNMCKLKPLLNKWLEEADSS, for which the abundance fitness is 0.044 ± 0.042.

Regarding EDTPTSDDLEQFAKQFKQRRIKLGFTQADVGLALGTLYGNVFSQTTICRFEAEQLSFKNMCKLKPLLNKWLEEADSS, the abundance fitness was -0.311 ± 0.053.

As to EDTPTSDDLEQFAKQFKQRRIKLGFTQADVGLALGTLYGNVFSQTTICRFEAMQLSFKNMCKLKPLLNKWLEEADSS, the abundance fitness stood at 0.017 ± 0.042.
